Legend:
[1] = target: T1, Recombinant Cyno CD200R, His-tagged (Creative Biomart CD200R1-3483C) (cynomolgus monkey); assay: SPR (BIAcore T200), CD200-Fc captured on anti-human Fc, cyno CD200R flowed, 25 C, 1:1 fit, mean of two runs
T1 construct: Bought; also called cynomolgus CD200R1; cynomolgus CD200R
Protocol: The experiments were performed on a GE Healthcare BIAcore T200. Human, cynomolgus and mouse CD200R proteins were purchased from Creative Biomart (CD200R1-320H, CD200R1-3483C, CD200R1-3280M). All measurements were performed in duplicate.
(§1) For human CD200 constructs: anti-human Fc (GE Healthcare) was covalently immobilized on a BIAcore CM5 sensor chip (Cytiva, BR100530) by amine coupling using a Cytiva kit (BR100839) following the manufacturer's instructions, targeting immobilization of 8,000-11,000 RU. CD200-Fc proteins were diluted to 0.5 μg/mL to 4 μg/mL in running Buffer (1×HBS-EP+pH7.4 (Cytiva BR100669), HEPES Buffered Saline pH 7.4 containing 3 mM EDTA and 0.05% v/v Surfactant P20) and flowed for 25 to 100 seconds at 10 μL/min over the immobilized Anti-Human IgG Fc, with a stabilization time of 60 seconds. Between 35 and 250 RUs of CD200-Fc were captured, with higher RUs used for cynomolgus CD200R binding experiments. […] Analysis temperature was 25° C. This was followed by regeneration of the surface with 30-90 second pulse of 3M MgCl₂ flowed at 30 L/min flow rate followed by stabilization of the surface with 60 second flow of running buffer.
(§2) For mouse CD200 constructs, muCD200R-Fc (Creative Biomart CD200R1-458M) diluted to 1 μg/mL in running buffer was flowed over the immobilized Anti-Human IgG Fc, with CD200 monomers serially diluted and flowed over captured CD200R. Other details were as above. Data analysis: experimental sensorgrams were analyzed in BIAevaluation software (GE Healthcare). The curves obtained were fitted to 1:1 Langmuir binding model by setting Rmax and RI as local parameters. Rate equations using standard parameters (e.g. ligand concentration, time) were used for iterative curve fitting. Closeness of fit was determined by algorithms provided by the manufacturer in the BIAevaluation software, and data accepted if the Chi² value was less than 10% of Rₘₐₓ, and the U value was less than or equal to 15.

[2] = target: T2, Recombinant Human CD200R, His-tagged (Creative Biomart CD200R1-320H) (human, UniProt Q8TD46 27-266); assay: SPR, CD200R flowed over immobilized CD200-Fc, 25 C, 1:1 fit
T2 construct: Bought; also called human CD200 receptor; not shown: His tag
T2 sequence (looked up): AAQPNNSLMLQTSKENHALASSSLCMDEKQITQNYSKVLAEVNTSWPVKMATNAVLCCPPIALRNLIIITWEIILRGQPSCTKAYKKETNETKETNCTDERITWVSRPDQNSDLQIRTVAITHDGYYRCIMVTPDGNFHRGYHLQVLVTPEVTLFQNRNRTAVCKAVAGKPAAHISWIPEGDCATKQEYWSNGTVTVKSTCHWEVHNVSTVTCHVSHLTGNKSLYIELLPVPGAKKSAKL
Protocol: as §1
(§3) Curves obtained were fitted to 1:1 Langmuir binding model by setting Rmax and RI as local parameters. Rate equations using standard parameters (e.g. ligand concentration, time) were used for iterative curve fitting. […] Means of 2 experiments carried out on the same day are shown with standard deviation. Residue numbering for CD200 proteins refers to the pre-protein, containing a signal peptide which is cleaved during insertion into the endoplasmic reticulum.

[3] = target: T1, Recombinant Cyno CD200R, His-tagged …; assay: SPR, cyno CD200R1 flowed over immobilized CD200-Fc, 25 C, 1:1 fit, mean of 2 experiments with standard deviation
Protocol: as §1, §3

[4] = target: T2, Recombinant Human CD200R, His-tagged …; assay: SPR (BIAcore)
Protocol: as §1, with “This was followed by regeneration of the surface with 30-90 second pulse of 3M MgCl₂ flowed at 30 L/min flow rate followed by stabilization of the surface with 60 second flow of running buffer.” left out
as §2, with “Other details were as above.” left out, “The curves obtained were fitted to 1:1 Langmuir binding model by setting Rmax and RI as local parameters. Rate equations using standard parameters (e.g. ligand concentration, time) were used for iterative curve fitting.” left out

[5] = target: T1, Recombinant Cyno CD200R, His-tagged …; assay: SPR, cyno CD200R1 flowed over immobilized CD200-Fc, 25 C, 1:1 fit
Protocol: as §1, §3

[6] = target: T1, Recombinant Cyno CD200R, His-tagged …; assay: SPR (BIAcore), DS-118 captured (0.5 ug/mL), CynoCD200R1 flowed at 1000 nM to 62.5 nM, 25 C, 1:1 Binding model, run 2
Protocol: as §1, §2

[7] = target: T3, Cyno PBMCs; assay: Flow cytometry, % binding on cynomolgus PBMCs gated on live cells, 1 hour at 37 C, anti-human secondary antibody; the target protein on the cells is not named
T3 construct: No receptor was assigned; also called cynomolgus monkey PBMCs, gated on live cells
Protocol: PBMC cells were re-suspended with a density of 0.1 million cells per assay point, with 50 μL FACS buffer (1×PBS+2% FBS). Dilutions of huCD200-Fc in 50 μL were added, starting at 10 μg/mL with 3-fold dilutions up to 10 concentrations with FACS buffer, and incubated for 1-hour at 37° C. At the end of each time point, cells were collected and washed (addition of 200 μL FACS buffer and centrifugation at 1400 RPM). 10 μg/mL of anti-human secondary antibody (Abcam Ab98596) was added together with excess Fc block (Innovex Biosciences no. NB309), and incubated for 30 minutes at 4° C. Cells were washed post incubation and stained to check viability (1 μL dye per million cells per mL 1×PBS, ThermoFisher C34557A) for 20 minutes at 4° C. Cells were washed and fixed with Fixation buffer (100 μL per test, BD Sciences 554655) at 4° C. for 20 minutes. Post incubation, cells were washed and the pellet was re-suspended in FACS buffer (100 μL per test) for data acquisition on the flow cytometer.

[8] = target: T2, Recombinant Human CD200R, His-tagged …; assay: SPR (BIAcore), DS-118 captured (0.5 ug/mL), HuCD200R1 flowed at 100 nM to 6.25 nM, 25 C, 1:1 Binding model, run 1
Protocol: as §1, §2

[9] = target: T1, Recombinant Cyno CD200R, His-tagged …; assay: SPR (BIAcore), DS-118 captured (0.5 ug/mL), CynoCD200R1 flowed at 1000 nM to 62.5 nM, 25 C, 1:1 Binding model, run 1
Protocol: as §1, §2

B1: DS-118 (mutated human CD200-Fc fusion protein, K130Y, I131Y, IgG4 S228P Fc) (Fc fusion)
chain: QVQVVTQDEREQLYTPASLKCSLQNAQEALIVTWQKKKAVSPENMVTFSENHGVVIQPAYKDKINITQLGLQNSTITFWNITLEDEGCYMCLFNTFGFGYYSGTACLTVYVQPIVSLHYKFSEDHLNITCSATARPAPMVFWKVPRSGIENSTVTLSHPNGTTSVTSILHIKDPKNQVGKEVICQVLHLGTVTDFKQTVNKGPPCPPCPAPEFLGGPSVFLFPPKPKDTLMISRTPEVTCVVVDVSQEDPEVQFNWYVDGVEVHNAKTKPREEQFNSTYRVVSVLTVLHQDWLNGKEYKCKVSNKGLPSSIEKTISKAKGQPREPQVYTLPPSQEEMTKNQVSLTCLVKGFYPSDIAVEWESNGQPENNYKTTPPVLDSDGSFFLYSRLTVDKSRWQEGNVFSCSVMHEALHNHYTQKSLSLSLGK
notes: also called mutated CD200-Fc; mutant CD200-Fc
[1]
  Kd: 206 nM
  koff: 0.038 s⁻¹
  kon: 186000 M⁻¹ s⁻¹
[2]
  T1/2: 37.9 min
[3]
  Kd: 206 nM
[4]
  fold greater affinity than wild-type CD200-Fc (DS-155): ~137 fold
[5]
  T1/2: 0.303 min
[6]
  Kd: 204 nM
  koff: 0.0596 s⁻¹
  kon: 292000 M⁻¹ s⁻¹
[7]
  EC50: 1.96 µg/mL
[8]
  Kd: 1.21 nM
  koff: 0.000278 s⁻¹
  kon: 230000 M⁻¹ s⁻¹
[9]
  Kd: 207 nM
  koff: 0.0164 s⁻¹
  kon: 79200 M⁻¹ s⁻¹

— patent US20260116951A1 (DUCENTIS BIOTHERAPEUTICS, published 2026)
